Experimental data taken from the nanobody polyreactivity screen of Harvey et al. (2022).

assay: yeast display, Sf9 membrane polyspecificity reagent, FACS + sequencing; frameworks hold sequencing errors
Outline: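 Polyreactivity labels are assigned by the sorting gate from which each nanobody was recovered. The gates were low and high (top ~1%), set on anti-HA fluorescence for expression and streptavidin fluorescence for reagent binding. Before sorting, galactose-induced (36–48 hours) yeast display cells were stained for 1 hour at 4 °C with 10% biotinylated, detergent-solubilized Sf9 membrane reagent.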

| Sequence | polyreactivity (PSR sort gate) |
| --- | --- |
| QVQLVESGGGLVQAGGSLRLSCAASGRTFTRYAMGWYRQAPGKERELVAAISRGGGGTYYADSVKGRFTISRDNAKNTVYLQMNSLKPEDTAVYYCAADGDRSAQRYTGYYYWGQGTQVTVSS | high polyreactivity |
| QVQLVESGGGLVQAGGSLRLSCAASGRTFTRYAMGWYRQAPGKERELVAAISRRGGRTFYADSVKGRFTISRDNAKNTVYLQMNSLKPEDTAVYYCAADYKSSPPLPEYDYWGQGTQVTVSS | high polyreactivity |
| QVQLVESGGGLVQAGGSLRLSCAASGRTFTRYAMGWYRQAPGKERELVAAISYIGGRTNYADSVKGRFTISRDNAKNTVYLQMNSLKPEDTAVYYCAASRPWVYYDGLDYWGQGTQVTVSS | high polyreactivity |
| QVQLVESGGGLVQAGGSLRLSCAASGRTFTRYAMGWYRQAPGKERELVAAITSDGTTYYADSVKGRFTISRDNAKNTVYLQMNSLKPEDTAVYYCNAQYKFPDLGGYDYWGQGTQVTVSS | high polyreactivity |
| QVQLVESGGGLVQAGGSLRLSCAASGRTFTRYAMGWYRQAPGKERELVAAITSSGRTYYADSVKGRFTISRDNAKNTVYLQMNSLKPEDTAVYYCAARGVYVKYYYWGQGTQVTVSS | high polyreactivity |
| QVQLVESGGGLVQAGGSLRLSCAASGRTFTRYAMGWYRQAPGKERELVATITRGGSTNYADSVKGRFTISRDNAKNTVYLQMNSLKPEDTAVYYCAAGYFIRTRSRYRYDYWGQGTQVTVSS | high polyreactivity |
| QVQLVESGGGLVQAGGSLRLSCAASGRTFTRYAMGWYRQAPGKERELVATITRGGSTNYADSVKGRFTISRDNSKNTVYLQMNSLKPEDTAVYYCAAGYFIRTRSRYRYDYWGQGTQVTVSS | high polyreactivity |
| QVQLVESGGGLVQAGGSLRLSCAASGRTFTSNAMGWYRQAPGKERELVAAISNRGTRTYYADSVKGRFTISRDNAKNTVYLQMNSLKPEDTAVYYCAARVSTVFKRYYYWGQGTQVTVSS | high polyreactivity |
| QVQLVESGGGLVQAGGSLRLSCAASGRTFTSNAMGWYRQAPGKERELVAAITRGGSTYYADSVKGRFTISRDNAKITVYLQMNSLKPEDTAVYYCAAAYGGRLRYTAGYYWGQGTQVTVSS | high polyreactivity |
| QVQLVESGGGLVQAGGSLRLSCAASGRTFTSYAMGWYRQEHGKERELVAGISSGGSTNYADSVKGRFTLSRDNAKNTVYLQMNSLKPEDTAVYYWAAGFSPGSYDAPTLAFEYWGQGTQVTVSS | low polyreactivity |
| QVQLVESGGGLVQAGGSLRLSCAASGRTFTTNAMGWYRQAPGKERELVAAITIGDDTYYADSVKGRFTISRDNAKNTVYLQMNSLKPEDTEVYYCSADYKRVPFVTQYVSKDGYWGHGTQVTVSS | low polyreactivity |
| QVQLVESGGGLVQAGGSLRLSCAASGRTFTTYAMGWYRQAPGKERELVAAISGSGGSTYYADSVKGRFTISRDNAKNTVYLQMNSLKPEDTAVYYCATAYYYHGGYYYPYDDDWGQGTQVTVSS | low polyreactivity |
| QVQLVESGGGLVQAGGSLRLSCAASGRTFTVYAMGWYRQAPGKERELVAAISSGGITYYADSVKGRFTISRDNAKNTVYLQMNSLKPEDTAVYYCNTKSGKARYVFGYWGQGTQVTVSS | low polyreactivity |
| QVQLVESGGGLVQAGGSLRLSCAASGRTFVANTMGWYRQAPGKEREFVAGISRRGGSTYYADSVKGRYTISRDNAKNTVYLQMNSLKPEDPAVYYCAVGTWARYRGLEYDYWGQGTQVTVSS | high polyreactivity |
| QVQLVESGGGLVQAGGSLRLSCAASGRTFVDSVMGWYRQAPGKERELVAAISRSGSTYYADSVKGRFTISRDNAKNTVYLQMNSLKPEDTAVYYCAADWSFNRSSGQYGFYYWGQGTQVTVSS | low polyreactivity |
| QVQLVESGGGLVQAGGSLRLSCAASGRTFVDYAMGWYRQAPGKERELVAAISSSGASTYYADSVKGRFTISRDNAKNTVYLQMNSLKPEDTAVYYCAARRHRTYGYWGQGTQVTVSS | high polyreactivity |
| QVQLVESGGGLVQAGGSLRLSCAASGRTFVEYAMGWYRQAPGKERELVAAITYSGDDTYYADSVKGRFTISRDNAKNTVYLQMNSLKPEDTAVYYCAKKRSKPISFDYWGQGTQVTVSS | high polyreactivity |
| QVQLVESGGGLVQAGGSLRLSCAASGRTFVFNAMGWYRQAPGKERELVAAISRSGGSTYYADSVKGRFTISRDNAKNTVYLQMNSLKPEDTAVYYCAADKYYLFALYEYGYWGQGTQVTVSS | high polyreactivity |
| QVQLVESGGGLVQAGGSLRLSCAASGRTFVFNGMGWYRPAPGKERELVAAINWDGGDTYYADSVKGRFTISRDNAKNTVYLQMNSLKPEDTAVYYCAAEGIFRYYTQATMEYWGQGTQVTVSS | low polyreactivity |
| QVQLVESGGGLVQAGGSLRLSCAASGRTFVGYAMGGYRQAPGQERELVANMTTSGGNTYYADSVKGRFTISRDNAKNTDYLQMNSLKPEDTAVYYCAARVYWVTRAVSTSYYYWGQGTQGTVSS | high polyreactivity |
| QVQLVESGGGLVQAGGSLRLSCAASGRTFVGYAMGWYRQAPGKERELVAAITYSGVSTYYADSVKGRFTISRDNAKNTVYLQMNSLKPEDTAVYYCAADYISVYGYEYYYWGQGTQVTVSS | high polyreactivity |
| QVQLVESGGGLVQAGGSLRLSCAASGRTFVGYAMGWYRQAPGKERELVASITASGGRTYYADSVKGRFTISRDNAKNTVYLQMNSLKPEDTAVYYCAAYIHWSEDYWGQGTQVTVSS | low polyreactivity |

| Sequence | polyreactivity (PSR sort gate) |
| --- | --- |
| QVQLVESGGGLVQAGGSLRLSCAASGRTFVGYSMGWYRQAPGKEREFVATITSSGRTNYADSVKGRFTISRDNAKNTVYLQMNSLKPEDTAVYYCNAVYGRFVDLRYDYWGHGTQVTVSS | high polyreactivity |
| QVQLVESGGGLVQAGGSLRLSCAASGRTFVIYAMGWYRQAPGKEREFVAAISRSGGSTYYADSVKGRFTISRDNAKNTVYLQMNSLKPEDTAVYYCNTRTPYWFKSDYWGQGTQVTVSS | low polyreactivity |
| QVQLVESGGGLVQAGGSLRLSCAASGRTFVIYARGWYRQAPGKEWALVAAINWRGGSTYYADSVKGRFTISRDNAKNTVYLQMNSLKPEDTAVYYCAADTGWWWLYDYWGQGTQVTVSS | high polyreactivity |
| QVQLVESGGGLVQAGGSLRLSCAASGRTFVKNAMGWYRQAPGKERELVAAISSSGGSTYYADSVKGRFTISRDNAKNTVYLQMNSLKPEDTAVYYCNRYSRLYLTDDDYWGQGTQVTVSS | high polyreactivity |
| QVQLVESGGGLVQAGGSLRLSCAASGRTFVKNNMGWYRQSPGKERELVAAISSSGGSTYYADSVKGRFTISRDNAKNSVYLHMNSLNPEDTAVYFCAVSYPYKHAGGWYAYNYWGQGTQVTVSS | high polyreactivity |
| QVQLVESGGGLVQAGGSLRLSCAASGRTFVKYAMGWYRQAPGKERELVAAISWSGGSTYYADSVKGRFTISRDNAKNTVYLQMNSLKPEDTAVYYCAAPSSRGQGRNFDYWGQGTQVTVSS | high polyreactivity |
| QVQLVESGGGLVQAGGSLRLSCAASGRTFVNYAMGWYRQAPGKEREFVAAITNGGRTNYADSVKGRFTISRDNAKNTVYLQMNSLKPEDTAVYYCAARYRFGGIRRYNYWGQGTQVTVSS | high polyreactivity |
| QVQLVESGGGLVQAGGSLRLSCAASGRTFVNYAMGWYRQAPGKERELVAAITSDGSTSYADSVKGRFTISRDNAKNTVYLQMNSLKPEDTAVYFCAKDFFEHSPVSHTYSSSKYDYWGQGTQVTVSS | low polyreactivity |
| QVQLVESGGGLVQAGGSLRLSCAASGRTFVNYTMGWDRQAPGKERELVAAIRYRDGSTYYADSVKGRFTISRDNAKNTVYLQMNSLKPEDTAVYYCNTRITQVGDYIYDYWGQGTQVTVSS | low polyreactivity |
| QVQLVESGGGLVQAGGSLRLSCAASGRTFVPNTMGWYRQAPGKERELVAAIRWSVGSTYYADSVKGRFTISRDNAKNTVYLQMNSLKPEDTAVYYCAAYYSRSYLRYGMDYWGQGTQVTVSS | high polyreactivity |
| QVQLVESGGGLVQAGGSLRLSCAASGRTFVPYAMGWYRQAPGKEREFVAAISSRVGSTYYADSVKGRFTISRDNAKNTVYLQRNSLKPEDTAVYYCNAPFKPAGFYSAWKYDYWGQGTQVTVSS | low polyreactivity |
| QVQLVESGGGLVQAGGSLRLSCAASGRTFVQYVMGWYRQAPGKERELVARISSGGSTFYADSVKGRFTISRDNAKNSVYLQLNSLKPEDTAVYYCAAQWTRYRRRPMDYWGQGTQVTVSS | high polyreactivity |
| QVQLVESGGGLVQAGGSLRLSCAASGRTFVRNAMGWYRQAPGKERELVAAISSSGGSTYYADSVKGRFTISRDNAKNTVYLQMNSLKPEDTAVYYCAAFRIGREYWGQGTQVTVSS | high polyreactivity |
| QVQLVESGGGLVQAGGSLRLSCAASGRTFVRNTMGWYRQAPGKEREFVAAISRSGGNTNYADSVKGRFTISRDNAKNTVYLQMNSLKPEDTAVYYCATRAGYQVYPNKMNYWGQGTQVTVSS | high polyreactivity |
| QVQLVESGGGLVQAGGSLRLSCAASGRTFVSYAMGWYRPAPGKERELVAGISWSGDSTYYADSVKGRFTISRDNAKNTVYLEMNSLKPEDSAVYYCAAYGPFIYGGHHYNYWGQGTQVTVSS | low polyreactivity |
| QVQLVESGGGLVQAGGSLRLSCAASGRTFVTNAMGWYRQAPGKERELVAAISKSGGRTYYADSVKGRFTISRDNAKNTVYLQMNRLKPEDTAVYYCAADKRYLSYDYWGQGTQVTVSS | high polyreactivity |
| QVQLVESGGGLVQAGGSLRLSCAASGRTFVTNAMGWYRQAPGKERELVAAISSGDDSTYYADSVKGRFTISRDNAKNTVYLQMNSLKPEDTAVYYCAAEGYYVDYYFYFHGFDYWGQGTQVTVSS | high polyreactivity |
| QVQLVESGGGLVQAGGSLRLSCAASGRTFVTNAMGWYRQAPGKERELVAAITQRGGRTYYADSVKGRFTISRDNAKNTVYLQMNSLKPEDTAVYYCAASYYGWSARYDTLGIYEYWGQGTQVTVSS | high polyreactivity |
| QVQLVESGGGLVQAGGSLRLSCAASGRTFVTYAMGWYRQAPGKEREFVAAISRNGGSTYYADSVKGRFTISRDNAKNTVYLQMNSLKPEDTAVYYCAKGRPWYRGDYWGQGTQVTVSS | low polyreactivity |
| QVQLVESGGGLVQAGGSLRLSCAASGRTFVVNAMGWYRQAPGKERELVATIRWSGGRTYYADSVKGRFTISRDNAKNTVYLQMNSLKPEDTAVYYCAADFKGLFSSELDYWGQGTQVTVSS | low polyreactivity |
| QVQLVESGGGLVQAGGSLRLSCAASGRTFVVYAMGWYRQAPGKERELVAAINWSGTSTYYADSVKGRFTISRDNAKNTVYLQMNSLKPEDTAVYYCAAVAGLGTYRRYGYWGQGTQVTVSS | high polyreactivity |
